Experimental findings from paper PMC10673124 are described below.

The target of this assay is Elastase (UniProt P00772).
Chain of UniProt P00772 (P00772 27-266): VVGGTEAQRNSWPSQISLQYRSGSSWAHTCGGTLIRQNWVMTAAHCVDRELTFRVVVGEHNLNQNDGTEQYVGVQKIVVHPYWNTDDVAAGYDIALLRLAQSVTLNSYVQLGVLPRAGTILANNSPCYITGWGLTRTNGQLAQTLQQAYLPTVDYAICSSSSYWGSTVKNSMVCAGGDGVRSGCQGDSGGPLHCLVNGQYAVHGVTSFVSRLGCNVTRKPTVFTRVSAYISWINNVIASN

VGVPGVGVPGVGVPGV [S1 (…)] yielded an elastase inhibitory activity (%), peptide at 10-20 mM, substrate N-Succinyle-Ala-Ala-Ala-pNA of 76.3%.
